Measured values from paper PMC13022382 (Nature Communications, 2026).
Blank lines part the entries; values can stand above or below the binder they belong to. Primed or numbered codes have the meaning given here. No end group written: not given here. *: point of attachment. TMR‑6COOH = tetramethylrhodamine, CN(C)c1ccc2c(-c3cc(C(=O)*)ccc3C(=O)[O-])c3ccc(N(C)C)cc3[o+]c2c1; Biotin = O=C1N[C@H]2[C@H](CS[C@H]2CCCCC(=O)*)N1; PEG2′ = Fmoc-PEG2-OH spacer; PEG4′ = not defined here

Experiments:
biotin-Hpep11 conjugate = molecular target: T1, biotin-Hpep11 conjugate; experiment: BLI
T1 chain: {Biotin-PEG4′}-SKRDWREMFRLFRT

biotin-Hpep9 conjugate = molecular target: T2, biotin-Hpep9 conjugate; experiment: BLI
T2 chain: {Biotin-PEG4′}-RGWSWREMFRLFRT

TMR-Hpep11 conjugate = molecular target: T3, TMR-Hpep11 conjugate; experiment: fluorescence polarisation
T3 peptide: {TMR‑6COOH-PEG2′}-SKRDWREMFRLFRT

TMR-Hpep9 conjugate = molecular target: T4, TMR-Hpep9 conjugate; experiment: fluorescence polarisation
T4 peptide: {TMR‑6COOH-PEG2′}-RGWSWREMFRLFRT

Kd (biotin-Hpep11 conjugate): 10.6 nM | koff (biotin-Hpep11 conjugate): 0.000687 s⁻¹ | kon (biotin-Hpep11 conjugate): 64900 M⁻¹ s⁻¹ | Kd (biotin-Hpep9 conjugate): 4.86 nM | koff (biotin-Hpep9 conjugate): 0.00104 s⁻¹ | kon (biotin-Hpep9 conjugate): 214000 M⁻¹ s⁻¹
B1: TMR-labeled cpHaloΔ3 (domain or fragment)
chain: EKKGDVGRKLIIDQNVFIEGTLPMGVVRPLTEEEMDHYREPFLNPKDREPLWRFPNELPIAGEPANIVALVEEYMDWLHQSPVPKLLFWGTPGVLIPPAEAARLAKSLPNCKAVDIGPGLNLLQEDNPDLIGSEIARWLSTLEIKSKYDRDQILKIIAELEKKTGGSIGTGFPFDPHYVEVLGSRMHYVDVGPRDGTPVLFLHGNPTSSYVWRNIIPHVAPTHRCIAPDLIGMGKSDKPDLGYFFDDHVRFMDAFIEALGLEEVVLVIHDWGSALGFHWAKRHPERVKGIAFMEFIRPIPTWDEWGDVE
modifications: labeled with the HaloTag ligand CA-TMR (chloroalkane derivative of tetramethylrhodamine)

kon (biotin-Hpep11 conjugate): 50000 M⁻¹ s⁻¹ | Kd (biotin-Hpep9 conjugate): 18.8 nM | koff (biotin-Hpep9 conjugate): 0.00149 s⁻¹ | kon (biotin-Hpep9 conjugate): 78900 M⁻¹ s⁻¹ | Kd (TMR-Hpep11 conjugate): 1.34 nM | Kd (TMR-Hpep9 conjugate): 3.26 nM
B2: SiR-labeled cpHaloΔ3 (domain or fragment)
chain: B1 chain
modifications: labeled with the HaloTag ligand CA-SiR (chloroalkane derivative of silicon rhodamine)

Kd (TMR-Hpep11 conjugate): 38.3 nM | Kd (TMR-Hpep9 conjugate): 26.3 nM
B3: cpHaloΔ2 (His10-tagged) (domain or fragment)
chain: DVGRKLIIDQNVFIEGTLPMGVVRPLTEEEMDHYREPFLNPKDREPLWRFPNELPIAGEPANIVALVEEYMDWLHQSPVPKLLFWGTPGVLIPPAEAARLAKSLPNCKAVDIGPGLNLLQEDNPDLIGSEIARWLSTLEIKSKYDRDQILKIIAELEKKTGGSIGTGFPFDPHYVEVLGSRMHYVDVGPRDGTPVLFLHGNPTSSYVWRNIIPHVAPTHRCIAPDLIGMGKSDKPDLGYFFDDHVRFMDAFIEALGLEEVVLVIHDWGSALGFHWAKRHPERVKGIAFMEFIRPIPTWDEW
